The record followed here is patent US20200002699 (published 2020).

Data set [1] has as its target T1, alpha-thrombin (Homo sapiens, UniProt P00734;P00734 P00734:328-363,P00734:364-622). Nature of the data set: filter; truncated form; 2 mM MgSO4 buffer.
The target of data set [2] is T1, alpha-thrombin. The data set is described as follows: BLI; ±0.002; kon 91.9e4 M-1 s-1, koff 4.12e-4 s-1; RNA immobilized on streptavidin sensor; 20 mM Tris pH 7.5, 150 mM NaCl, 2 mM MgSO4, 2 mg/mL BSA, 0.1% Tween-20. (In general: In BLI a coated tip is dipped into the sample, and binding shifts an interference pattern.)
Data set [3] has as its target T1, alpha-thrombin. Nature of the data set: filter; ±4.6; Fbmax 95.6; same buffer, 22 C.
Data set [4] has as its target T1, alpha-thrombin. Nature of the data set: filter; ±0.2; Fbmax 92.3; 20 mM Tris pH 7.5, 150 mM NaCl, 2 mM MgSO4, 50 ug/mL BSA, 22 C.
Data set [5] addresses T1, alpha-thrombin. The data set is described as follows: filter; ±0.4; Fbmax 63.5; same buffer, 22 C.
Data set [6] addresses T1, alpha-thrombin. Nature of the data set: filter; ±0.9; Fbmax 84.5; same buffer, 22 C.
In data set [7] the target is T1, alpha-thrombin. Nature of the data set: filter; ±1.9; Fbmax 74.5; same buffer, 22 C.
The target of data set [8] is T1, alpha-thrombin. The data set is described as follows: filter; NB, little or no binding; same buffer, 22 C.
Data set [9] has as its target T1, alpha-thrombin. The data set is described as follows: filter; ±2.8; Fbmax 52.9; same buffer, 22 C.
Data set [10] concerns the target T1, alpha-thrombin. The data set is described as follows: filter; ±0.3; Fbmax 65.3; same buffer, 22 C.
In data set [11] the target is T1, alpha-thrombin. Nature of the data set: filter; ±0.3; Fbmax 80.6; same buffer, 22 C.

B1: Truncated clone 9 (ssRNA)
RNA: GUGUUCACAAGAUAGAGUAGACUAAGUGACAC
As to B1, the equilibrium dissociation constant (Kd) (in general, a measure of binding affinity in units of concentration) with alpha-thrombin [1] was 2 nM; with alpha-thrombin [2], 0.448 nM.

B2: Clone 1 (ssRNA)
RNA: GGAGAGAGAAGGAGAACGAGCUGUUACUCACAAAAUAGCGAAGACUAAGUGACACAAAGCCCGG
Consider B2, for which, in the data set with alpha-thrombin [3], the Kd was found to be 44.7 nM.

B3: Clone 9 (ssRNA)
RNA: GGAGAGGGAAAGAGAACGAGCGGGUGUUCACAAGAUAGAGUAGACUAAGUGACACAAAGCCCGG
In the data set with alpha-thrombin [4], B3 returned a Kd of 1.4 nM.

B4: Clone 8 (ssRNA)
RNA: GGAGAGCGAAGAGAACGAGCGGGAUUGCACAAGAUAGCGUAGACUAAGUGACACAAAGCCCGG
B4 had a Kd with alpha-thrombin [5] of 1.6 nM.

B5: Clone 4 (ssRNA)
RNA: GGAGAGGGAAGGAGAACGGCUGCGGAUAACAAGAUAGCAAAGACUAAGUGACACAAAGCCCGG
Molecule B5 showed a Kd in the data set with alpha-thrombin [6] of 10 nM.

B6: Clone 6 (ssRNA)
RNA: GGAGAGGGAAGGAGAACGAGCCGGGACACUAAGGAACAUAAAAGUUAAGUGACACAAAGCCCGG
Turning to B6, the Kd with alpha-thrombin [7] worked out at 13.8 nM.

B7: Clone 5 (ssRNA)
RNA: GGAGAGGUAGGAGAACGAGCCUACCGUAAGAGAACGAGCAGACUCAAGUGACACAAAGCCCGG
Turning to B7, the binding result in the data set with alpha-thrombin [8] is “no binding”.

B8: Clone 10 (ssRNA)
RNA: GGAGACGGAAGGAUAACGAGCGCUUUGACACAAGAUACAAUAUAGUAAGUGACACCAAGCCCGG
In the data set with alpha-thrombin [9], B8 showed a Kd of 36.4 nM.

B9: Clone 3 (ssRNA)
RNA: GGAGAGGGAAGGAGAACGAACCGGGACUCACAAGAUAGACAAUACUAAGUGACACAAAGCCCGG
As to B9, binding with alpha-thrombin [10] was put at a Kd of 2.4 nM.

B10: Clone 2 (ssRNA)
RNA: GGAGAGGUAAGUAGAACGAGCCCGGCGUCACAAGAUAGACAAAACUAAGUGACACAAAGCCCGG
In the data set with alpha-thrombin [11], B10 registered a Kd of 3.5 nM.

B11: Clone 7 (ssRNA)
RNA: GGAGAGGGAAUGAUAACGAGCCCGAAGCUCGGAGAAGCACAGAAGCAAGUGACACAAAGCCCGG
Turning to B11, the binding result with alpha-thrombin [8] was “no binding”.
